Experiment: soluble on expression in E. coli; label from the status in PepcDB or PDB records

Sequence	soluble on expression in E. coli
SLASELHQTQVDLDGLLEVLGRNLYSTPAVAIRELIQNAHDACVRSRLETGRDGDFSIRIQADSHRNQIVITDNGSGLTYEEVLKYLATIGSGYTRVLRDSSHNEDMVGYFGLGFLSAYVVAEKVEVWTTSYQTPEQTWYFSTAGGKKFAISATAPAQVGTTVKLHLREEFYHLAESDLLQGLIERYCCLLRVPIFLNNDDVQVNNLVAPWRLDAATSELQRKKRRLEFAAIFEGAFEPLCAIPIPENNPWSLKGLLWVQDRGGYATSDYRNISVFVRSMFITGECRELLPLWAGFAGGVVESVALSPTASREDIQKNERFYEIRDFLAETLIEGLRTIAANESSVWRRILSRHNQTLLGAALSDDRLFEVMQNDLKIPTTIGDVTLPAYLKQSGGVIYIRNEDKNSQEELLFRAQMKPLVSGYLYAASGFCQKYAHWNHLKAHILGSGDGETKLFTEETVDKAIHDKLAALLLRKNEALSCARFEPAHVPLLVIHDQDVALKKRIERDEADKRIGSAALSLARLHTQAISAEIERRLYVNLNSPLIAAMIDGTQEAAGHLAVAVRAYMESLTHQVDDSDSNFSDELKRFSDALLAITKGEEG	soluble
MSLLFIFVVQSFAALSVEELTWDNGDTLLKFLQRNSIPMSLYYGLDREDQELASDIAYKIKYQVLKDENNNIEQVLIPISDDLQIHIYKDKDGQYTLAFTPVSYQKEDRILHLTIKSSAYQDVYEESGSSTLARAMVRAFRGSINFRNIQKGDEVTLYYEQKRRMGKLWGDINIKMAMVEINKSAREVFSYNDIFYDRDGKELESFLLTKPVNYTRISSPFTTARYHPILKRYRAHLGIDYAAPTGTPVKSAGKGVVTFIGTKGGYGNVIQIKHDSGYMTLYAHLSRFAKIKNGQKVNQGQVIAYVGSTGMSTGPHLHFGVYLNNKAINPASVVKIAKSELSGKAKENFKHIIAGYEQVVKEALASNQPNPPKEEDFENYIEGHHHHHH	soluble
MKVAIVHNSEEKSKQVTKQLTTLLEQNQIQIDNRQPELVISVGGDGTLLSAFHRFNHLLNEVSFLGVHTGHLGFYTDWRDYELKELVESLCIHREKSTSYPLLDVRIRFRDGKPDKHFLALNESTIKRGNRTMVGDVFIKDELFERFRGDGLSISTPTGSTAYNKSIGGAVLHPSINAFQLTEIASLNNRVFRTLGSPIVIAHTEWLEIKLQESDDYFVTVDQLDIYQENIASVCYRIADERIHFASYRHMHFWHRVKDAFIGED	not soluble
MGSDKIHHHHHHMSSLQISQGTFRLSDTKTLHLDSLTLNAGDSWAFVGANGSGKSALARALAGELPLLTGERQCRFTRITRLSFEQLQKLVSDEWQRNNTDMLSPGEDDTGRTTAEIIQDDVHHPARCAILAQQFGISALLDRRFKYLSTGETRKALLCQALMSEPELLILDEPFDGLDVTARQQLAQRLTALNQAGMTLALVLNRFDEIPDFVQFAGVLADCTLAETGTTAELLQRALVAQLAHSERLTDVQLPEPDEPSARHALPDGEPRIVLNDGVVSYNDRPILHHLSWRVNPGEHWQIVGPNGAGKSTLLSLITGDHPQGYSNDLTLFGRRRGSGETIWDIKKHIGYVSSSLHLDYRVSTTVRNVILSGYFDSIGIYQAVSDRQRKLAQQWLDILGIDKRTADAPFHSLSWGQQRLALIVRALVKHPTVLILDEPLQGLDPLNRQLVRRFVDVLIRQGETQLLFVSHHAEDAPACITHRLEFVPEGERYKYVSGRCNN	not soluble
MGSDKIHHHHHHMTYKVLHVGAGGFGERWCDTFLPSNNSDGTIEVVGLVDIDARALEIGRKHLGLKAKQCFTSAAQAFKAVDADFCTIVIPPALHEGIVDLALERGMHILSEKPIAATMEASVRIADKVRVAGRKMAVTMSHRFDQDKSTLRALVSDEALGRVNTVSCRFAGDYRAYDSWGRFRHEMIHPMLIEGAVHHLDIMADLAGAPCTSIYARSWKPEWAEYKGETDVMVLMDFANGAHGVYEGSSAQATGLNDWTFEYVRVEAASGTAILDHREVEVFHRDPKRIYQKNRHGKGQQVSLLGGKKWKNSLLIEQFCHWLDGGPPMATNVEDNLQSVALIFSAIESARLGQPVKVQEFLQSFRKSASIETQ	not soluble
VTRPRPPLGPAMAGAVDLSGIKQRAQQNAAASTDADRALSTPSGVTEITEANFEDEVIVRSDEVPVVVLLWSPRSEVCVDLLDTLSGLAAAAKGKWSLASVNVDVAPRVAQIFGVQAVPTVVALAAGQPISSFQGLQPADQLSRWVDSLLSATAGKLKGAASSEESTEVDPAVAQARQQLEDGDFVAARKSYQAILDANPGSVEAKAAIRQIEFLIRATAQRPDAVSVADSLSDDIDAAFAAADVQVLNQDVSAAFERLIALVRRTSGEERTRVRTRLIELFELFDPADPEVVAGRRNLANALY	not soluble
MSSIDPATFAAQFAQIEIQPFKQRYQLQTNTYQSQLSALGKVESAMREFRTALNEMNSSTNSIIKNSTSISQEGYFTANADAKALSGSYQIFVEQVATSHQ	not soluble
MGSDKIHHHHHHMADFSNQIITIKKGLDLPIAGEPRQIIESGNKPSQVAILGEEYVGLKPTMLVEVGDKVKKGQPLFEDKKTKGVLFTAPASGEIVAINRGDRRVLQSVVIGCDGLDVNEQIRFDILPDVISLSRQVVQDQLVSSGLWTALRTRPFSRVPALDSQPAGIFVTAIDTNPLAADPRLIIAEQLEAFKTGLQVLTRLTEGKVYLCQDKGDAIACDVSPNLEIRRFTGVHPAGLAGTHIHFTLPVSLERQVWHIGYQDVIAYGKLFQTGELYTDRIIALGGPSVLNPRLLRTQLGAELSVLVADEIKPGNNRVVSGSVLSGHTAAGVHDFLGRFHNQVSVLAEDAQHQVLPWVRGGSDKFSITRAVTSRLFGASKRFEFTTHQGGSQRAMMAFGQLDRVMPLDILPTLLVRDLVVRDTDEAQALGALELDEEDLALCTFVCPGKYDFGKELRACLDVIEREG	not soluble
MGSDKIHHHHHHMKRQRLAIIDIGSNSIRLVINTINEHGHYQELYNFKTVARLSNHLDAQGNLTKEGTSILLTTLQKFRTLTEDHHCDRAIVVATAAMRKANNRKELLKLAEQETGFSIKLLSEYEEAYFGYLAIVNSTSIQDGITIDIGGGSTEITRFSNRKLLHYHSFPFGAITLYRDFFHSTDPSEEELASLQTFLESAFATLPWLQDAKDLPVIGIGGTARNLSLIHQRQTDYPLAGLHQYSFPAEELHSVTQMLQRLTSSEREGLDGLSKDRVDVIIPGTQAISSLVKTIGSSQFIMSRKGLRDGLFYSEILEQLNLECFPNVVEESFYQLYHQYEINLEHVKQVAKLATKLYEQLAPFYNGKLEHQQNLTLIHRAARVLYLGEHINPEASSQHTFYLLTNMSIDGLNHEERLALACVSSFKSKAQLLHMASPFMPLISKKQLKRFEFLGAILKLAYCLNRTRRHVIGKIGTIEAKRDALVLPLYYHYDLDPSFEQDYALKHVKHVEKVIKKTIELPFLPLSNFT	not soluble
MGSQFLLSVREFMQTRYYAKKTIEAYLHWITRYIHFHNKKHPSLMGDKEVEEFLTYLAVQGKVATKTQSLALNSLSFLYKEILKTPLSLEIRFQRSQLERKLPVVLTRDEIRRLLEIVDPKHQLPIKLLYGSGLRLMECMRLRVQDIDFDYGAIRIWQGKGGKNRTVTLAKELYPHLKEQIALAKRYYDRDLHQKNYGGVWLPTALKEKYPNAPYEFRWHYLFPSFQLSLDPESDVMRRHHMNETVLQKAVRRSAQEAGIEKTVTCHTLRHSFATHLLEVGADIRTVQEQLGHTDVKTTQIYTHVLDRGASGVLSPLSRL	soluble
MGSDKIHHHHHHMTNENELLYSSELQLSALNEAIEATPDNPYLYFKRATYFYNINNFRIAQNDIQKALRMDESVAAYWLLSAQINNELKNVDRAIEEGQKALQLGNAEPILYALLANCLLEKNDTISANQYIGKLTAIAPQMAELKYVQAKKLLIGKDTSHSFLKFRECIQNNPQYIEAYIDLMSLYYKKQMYDSIMPLLIKAKRMRPNNPTLFLYEGKFYETINKNQVALAAYKEGLLCDPQAIELYKPLSDYYGRQGNYKESMYYLSKWIEKNSSDAQSIIKMGNYALKQNDEAGAVTYYKNSLSIDSSNTYLKKEIERIEKHIRYVAQDTTN	not soluble
MSLTAIKHVAISCRRALTKCAKIGHTTVSVSRSLRKLSPTAFKTLRQAIAKVGHLNIMGQKIRLNDRELAANKVIMAVKKEEISKGILDPSQFTPGQHIFKTLAEVQKSPIFNLIKGMPKGGALHAHDTALCSTDYLISLTYRKNLWICTAEEGCKAIAFRFSKEEPKEKPVKESIWEPMEEFRERRGEENVTKYLTRRFSMYPFSKFISNNQAWAHFMGIFILLDGLLCHAPIWAEYYYNALKEFAEDGVQYLELRSLLPPLYCIDGDMLTIRDTVAIYNSELERFRADHPDFIGSKLIYAPLRGVEPSVVEQYVKTAVELNKEFPNFMVGFDLVGQEELGRPLIDFVEPLLKMPEHINFYFHAGETNWFGSPIDENLVDAILLGTKRIGHGYALTKHPMMMRLAKLLGIAIEVCPVSNQVLQLGVDYRNHPAALLLAANVPIVISSDDPSFWHCAPLSHDFYFAFLGIAPMKADLRFLKSLAINSIRYSALVGEEKRVGYRKWQEKWDKWIDDVVEHKYCEGHHHHHH	not soluble
MLVEFDNPPLCMKSNKDGSRLVVGFVDGSIRFYDTQQHEEEFQEIWKFQTKSSIRGVDLDEHKKRVYAVTKNRSLCVFDIDTGKRVRCILKCHRSVPTAICTLPPTALKSQQLATADESGEVKTWNLDPEVASENANIRKWQEQDEDINDLKVDVKSNLLATSSDGTLGAYDLRKAKLKMRSELMHSELYSVCGTNRSVYVGGEDGYVEVFNLNEYGNLLERVESGFEMGVNGIVELRSGLLGLTSQGSNRMRLLNVQPSKRLGYAGYHGDEKSDDDGIDAITISTDKSTVFTMISMSCTIKKWDMGPIIDEIPILRAQDAKSKKMRKTEGFFDGLVGPKNDSDSDDDDEPKSKKRRNDEDSDEEIDEEEQEEDDEEEEEDSD	not soluble
MGSDKIHHHHHHMAQNIYDQPDFFAGYSQLGRSIEGLDGAAEWPALRAMLPEVGGLRIVDLGCGFGWFCRWAHEHGASYVLGLDLSEKMLARARAAGPDTGITYERADLDKLHLPQDSFDLAYSSLALHYVEDVARLFRTVHQALSPGGHFVFSTEHPIYMAPARPGWAIDAEGRRTWPIDRYLVEGPRKTDWLAKGVVKHHRTVGTTLNALIRSGFAIEHVEEFCPTDAQITARPELAEELDRPMFLLVSARR	not soluble
MSLTTRIGFLLFPGFPMACLTSIIEPLRAANEISMSDSFAWRLVSELPRKVVSSAGITFEPDASLETVSALDYLVLLSAPVARFENPRTASLLRRIERHGTVLGAISGGVFPLVRSGVVRDERLSVHWCYEAAFAAEFPEIQRSNEVIEISPRLLTASGAAAAFDLALSLIEAALGANVANEVACWFQHPIMRKAGVKQALPIHQAADAEGEMSPLVARAIEIFAENLTTPASIAAIAERLHITPRHLERCFKQATGQNPTGYFRHLRMQAARQIVMYTNDSIAEVATAVGYANAKPLVRHYRDTFGLTPQQDRKRINLYRVEGNEGHHHHHH	not soluble
AGCEGLRIGQSALQARLSDQIDKLTQAEQHANQMLIDVRSRNHDTMKHITAIKSAQPKADTQAYIQNWADQYSQYDRFLKGENAYVAGVLYDFLEKARASNVSVSLHMHTPLSSLPFSPADQVSLVGNILENALDSAAEAREKAEIKLETSLRSGLYVLTCENSTPGMDPKVLDTIYQSFGRSTKNGAHEGMGTYIIQKLVKGAFGRLDFTYRHPIFRLEIKIPFQ	not soluble
METASKRPKSGAAKKPAAAKARGDGPSYLDGQLLIAMPVMEDERFARSVIYICAHSSEGAMGIIVNRPAGSIDFPELLVQLDIVEKPEQIKLPDHAESMKVLRGGPVETGRGFVLHSSDFFIKDATLPIDDGICLTATVDILKAIAGGTGPKHAILALGYAGWAPGQLENEIQENGWLHCDADADLIFGDDIEEKYDRALHKLGIEPGMLSAEAGHALEHHHHHH	soluble
